Results published in patent publication EP4813403A1 (Hangzhou Zhongmeihuadong Pharmaceutical Co., Ltd., dated 2025).

Target: T1, human GIP receptor (human, UniProt P48546 22-466)
T1 sequence (looked up): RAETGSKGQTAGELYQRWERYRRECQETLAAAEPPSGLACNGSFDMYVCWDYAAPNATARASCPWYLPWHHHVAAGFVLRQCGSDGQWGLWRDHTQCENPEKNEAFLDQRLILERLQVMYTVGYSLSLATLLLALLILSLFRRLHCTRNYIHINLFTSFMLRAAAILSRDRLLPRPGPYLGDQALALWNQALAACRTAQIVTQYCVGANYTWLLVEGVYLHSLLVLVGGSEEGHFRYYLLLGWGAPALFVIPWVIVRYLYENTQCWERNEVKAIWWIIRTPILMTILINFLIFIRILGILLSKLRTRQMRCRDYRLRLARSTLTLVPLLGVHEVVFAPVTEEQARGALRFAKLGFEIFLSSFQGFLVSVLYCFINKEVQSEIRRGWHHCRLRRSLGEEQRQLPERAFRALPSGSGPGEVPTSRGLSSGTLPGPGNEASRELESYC
Test: cell-based or functional assay

B1: P007 (peptide)
peptide: YXEGTXTSDYXIXLDKQAQAEFVKWLLKGGPSSGAPPPSK
modifications: Aib at 2; αMePhe at 6; Aib at 11; Aib at 13; K at position 24 ε-amino conjugated with ([2-(2-amino-ethoxy)-ethoxy]-acetyl)2-(γ-Glu)1-CO-(CH2)16-CO2H; C-terminal primary amide
- EC50 value (ratio: EC50 of endogenous ligand / EC50 of test compound), LANCE Ultra cAMP assay, HEK293/GIPR cells: 1.15 ratio
